Source: US20210292396A1

What was measured:
Test in all cases: cell-based or functional assay
[1] = biological target: Env of HIV isolate CNE40 (clade BC) (HIV)
[2] = biological target: Env of HIV isolate 96ZM651.02 (clade C) (HIV)
[3] = biological target: Env of HIV isolate Q842.d12 (clade A) (HIV)
[4] = biological target: Env of HIV isolate ZM135.10a (clade C) (HIV)
[5] = biological target: HIV Env of isolate MW965.26 (HIV)
[6] = biological target: HIV Env of isolate X2131.C1.B5 (HIV)
[7] = biological target: Env of HIV isolate A03349M1.vrc4a (clade D) (HIV)
[8] = biological target: Env of HIV isolate REJO.67 (clade B) (HIV)
[9] = biological target: Env of HIV isolate 6838.v1.c35 (clade C) (HIV)
[10] = biological target: Envelope protein of SVA.MLV (clade NA)
[11] = biological target: Env of HIV isolate CNE31 (clade C) (HIV)
[12] = biological target: Env of HIV isolate AC10.29 (clade B) (HIV)
[13] = biological target: Env of HIV isolate 0815.v3.c3 (clade ACD) (HIV)
[14] = biological target: Env of HIV isolate CH181.12 (clade BC) (HIV)
[15] = biological target: Env of HIV isolate 6545.v4.c1 (clade AC) (HIV)
[16] = biological target: HIV Env of isolate 96ZM651.02 (HIV)
[17] = biological target: Env of HIV isolate 57128.vrc15 (clade D) (HIV)
[18] = biological target: HIV Env of isolate NKU3006.ec1 (HIV)
[19] = biological target: HIV Env of isolate ZM53.12 (HIV)
[20] = biological target: Env of HIV isolate T266-60 (clade AG) (HIV)
[21] = biological target: Env of HIV isolate HO86.8 (clade B) (HIV)
[22] = biological target: Env of HIV isolate 0013095-2.11 (clade C) (HIV)
[23] = biological target: Env of HIV isolate BR025.9 (clade C) (HIV)
[24] = biological target: Env of HIV isolate ZM215.8 (clade C) (HIV)
[25] = biological target: Env of HIV isolate 3718.v3.c11 (clade A) (HIV)
[26] = biological target: HIV Env of isolate BR025.9 (HIV)
[27] = biological target: Env of HIV isolate BJOX025000.01.1 (clade AE) (HIV)
[28] = biological target: Env of HIV isolate THRO.18 (clade B) (HIV)
[29] = biological target: Env of HIV isolate P0402.c2.11 (clade G) (HIV)
[30] = biological target: HIV Env of isolate CNE15 (HIV)
[31] = biological target: Env of HIV isolate CAAN.A2 (clade B) (HIV)
[32] = biological target: Env of HIV isolate CH038.12 (clade BC) (HIV)
[33] = biological target: Env of HIV isolate ZM53.12 (clade C) (HIV)
[34] = biological target: Env of HIV isolate T251-18 (clade AG) (HIV)
[35] = biological target: HIV Env of isolate 247-23 (HIV)
[36] = biological target: Env of HIV isolate 269-12 (clade AG) (HIV)
[37] = biological target: HIV Env of isolate Ce1176.A3 (HIV)
[38] = biological target: Env of HIV isolate RW020.2 (clade A) (HIV)
[39] = biological target: Env of HIV isolate ZM197.7 (clade C) (HIV)
[40] = biological target: HIV Env of isolate ZM109.4 (HIV)
[41] = biological target: HIV Env of isolate DU151.02 (HIV)
[42] = biological target: Env of HIV isolate 3817.v2.c59 (clade CD) (HIV)
[43] = biological target: Env of HIV isolate R3265.c6 (clade AE) (HIV)
[44] = biological target: Env of HIV isolate ZM249.1 (clade C) (HIV)
[45] = biological target: Env of HIV isolate CNE55 (clade AE) (HIV)
[46] = biological target: HIV Env of isolate ZM176.66 (HIV)
[47] = biological target: HIV Env of isolate CH181.12 (HIV)
[48] = biological target: HIV Env of isolate 286.36 (HIV)
[49] = biological target: Env of HIV isolate CAP256.206.C9 (clade C) (HIV)
[50] = biological target: HIV Env of isolate CNE30 (HIV)

B1: ePGT121.15 (ePGT121.15.H6 VH and ePGT121.15.L1 VL) (antibody, V domains shown)
VH: QMQLQESGPGLVKPGETLSLTCSVSGASISSSYWSWLRETPGKGLEWIGYTHHSGDTNYAPSLKSRVHLGLHPSKNQVSLSLTSVTAADTAVYYCARTLHGRRIYGVVAFNEFFTYFYWEVWGKGTQVTVSS
VL: SDISVAPGETVRISCGGESIGSRAVQWYQHRAGQAPKLIIYNNQDRPPGIPERFSGSPDIDFGTTATLTITNVEAGDEATYYCHIWDSRRPTNWVFGGGTTLTVL
Binder B1 has an IC50, pseudovirus neutralization [1] of 0.028 µg/mL, an IC50, pseudovirus neutralization [2] of 1 ng/mL and an IC50, pseudovirus neutralization [3] of 3 ng/mL. The IC50, pseudovirus neutralization [4] was 0.119 µg/mL, the IC80, pseudovirus neutralization [5] was 9 ng/mL and the IC80, pseudovirus neutralization [6] was 4 ng/mL. The IC50, pseudovirus neutralization [7] was 6 ng/mL, the IC50, pseudovirus neutralization [8] was 1.46 µg/mL and the IC50, pseudovirus neutralization [9] was 0.234 µg/mL. It also gave an IC50, pseudovirus neutralization [10] greater than 50 µg/mL, an IC50, pseudovirus neutralization [11] of 0.042 µg/mL and an IC50, pseudovirus neutralization [12] of 2 ng/mL. For the same binder, the IC50, pseudovirus neutralization [13] was 2 ng/mL, the IC50, pseudovirus neutralization [14] was 3 ng/mL and the IC50, pseudovirus neutralization [15] was greater than 50 µg/mL. For the same binder, the IC80, pseudovirus neutralization [16] was 4 ng/mL, the IC50, pseudovirus neutralization [17] was 7 ng/mL and the IC80, pseudovirus neutralization [18] was greater than 50 µg/mL. It also gave an IC80, pseudovirus neutralization [19] of 0.062 µg/mL, an IC50, pseudovirus neutralization [20] of 6 ng/mL and an IC50, pseudovirus neutralization [21] greater than 50 µg/mL. For the same binder, the IC50, pseudovirus neutralization [22] was 3.01 µg/mL, the IC50, pseudovirus neutralization [23] was 2 ng/mL and the IC50, pseudovirus neutralization [24] was 0.017 µg/mL. The IC50, pseudovirus neutralization [25] was 0.489 µg/mL, the IC80, pseudovirus neutralization [26] was 6 ng/mL and the IC50, pseudovirus neutralization [27] was greater than 50 µg/mL. It also gave an IC50, pseudovirus neutralization [28] greater than 50 µg/mL, an IC50, pseudovirus neutralization [29] of 4 ng/mL and an IC80, pseudovirus neutralization [30] greater than 50 µg/mL. The IC50, pseudovirus neutralization [31] was 5 ng/mL, the IC50, pseudovirus neutralization [32] was 1 ng/mL and the IC50, pseudovirus neutralization [33] was 8 ng/mL. The IC50, pseudovirus neutralization [34] was 0.056 µg/mL, the IC80, pseudovirus neutralization [35] was greater than 50 µg/mL and the IC50, pseudovirus neutralization [36] was 0.011 µg/mL. For the same binder, the IC80, pseudovirus neutralization [37] was 0.01 µg/mL, the IC50, pseudovirus neutralization [38] was 3 ng/mL and the IC50, pseudovirus neutralization [39] was greater than 50 µg/mL. It also gave an IC80, pseudovirus neutralization [40] greater than 50 µg/mL, an IC80, pseudovirus neutralization [41] of 4 ng/mL and an IC50, pseudovirus neutralization [42] of 0.984 µg/mL. It also gave an IC50, pseudovirus neutralization [43] greater than 50 µg/mL, an IC50, pseudovirus neutralization [44] of 0.249 µg/mL and an IC50, pseudovirus neutralization [45] greater than 50 µg/mL. It also gave an IC80, pseudovirus neutralization [46] of 0.31 µg/mL, an IC80, pseudovirus neutralization [47] of 8 ng/mL and an IC80, pseudovirus neutralization [48] of 6 ng/mL. For the same binder, the IC50, pseudovirus neutralization [49] was 3 ng/mL and the IC80, pseudovirus neutralization [50] was 0.027 µg/mL.
